IntAct's records for PubMed 16628218

Biological target: T1, chio_human CHN2 (UniProt P52757)
T1 sequence: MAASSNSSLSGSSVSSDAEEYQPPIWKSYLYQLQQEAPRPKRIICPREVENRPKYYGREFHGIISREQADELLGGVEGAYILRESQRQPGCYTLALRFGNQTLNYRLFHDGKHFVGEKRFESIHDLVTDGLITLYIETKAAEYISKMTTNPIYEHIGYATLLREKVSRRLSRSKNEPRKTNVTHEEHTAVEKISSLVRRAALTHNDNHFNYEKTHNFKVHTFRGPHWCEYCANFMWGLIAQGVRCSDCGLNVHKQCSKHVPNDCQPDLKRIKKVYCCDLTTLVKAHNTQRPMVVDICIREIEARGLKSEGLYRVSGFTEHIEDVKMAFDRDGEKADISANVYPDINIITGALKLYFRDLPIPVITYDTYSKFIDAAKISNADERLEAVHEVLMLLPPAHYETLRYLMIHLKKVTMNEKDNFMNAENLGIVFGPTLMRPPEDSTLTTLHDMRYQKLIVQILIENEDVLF

Ras-related C3 botulinum toxin substrate 1 (Homo sapiens) (from UniProt P63000) G12V
effect of a mutation on the interaction: increasing interaction

Ras-related C3 botulinum toxin substrate 1 (Homo sapiens) (from UniProt P63000) T17N
effect of a mutation on the interaction: disrupting interaction
